Assay [1] concerns the target T1, recombinant human LAG3 expressed with a C-terminal mouse IgG2a mFc tag (human).
T1 construct: Called dimeric; also called hLAG3-mFc; hLAG3 dimer
T1 chain: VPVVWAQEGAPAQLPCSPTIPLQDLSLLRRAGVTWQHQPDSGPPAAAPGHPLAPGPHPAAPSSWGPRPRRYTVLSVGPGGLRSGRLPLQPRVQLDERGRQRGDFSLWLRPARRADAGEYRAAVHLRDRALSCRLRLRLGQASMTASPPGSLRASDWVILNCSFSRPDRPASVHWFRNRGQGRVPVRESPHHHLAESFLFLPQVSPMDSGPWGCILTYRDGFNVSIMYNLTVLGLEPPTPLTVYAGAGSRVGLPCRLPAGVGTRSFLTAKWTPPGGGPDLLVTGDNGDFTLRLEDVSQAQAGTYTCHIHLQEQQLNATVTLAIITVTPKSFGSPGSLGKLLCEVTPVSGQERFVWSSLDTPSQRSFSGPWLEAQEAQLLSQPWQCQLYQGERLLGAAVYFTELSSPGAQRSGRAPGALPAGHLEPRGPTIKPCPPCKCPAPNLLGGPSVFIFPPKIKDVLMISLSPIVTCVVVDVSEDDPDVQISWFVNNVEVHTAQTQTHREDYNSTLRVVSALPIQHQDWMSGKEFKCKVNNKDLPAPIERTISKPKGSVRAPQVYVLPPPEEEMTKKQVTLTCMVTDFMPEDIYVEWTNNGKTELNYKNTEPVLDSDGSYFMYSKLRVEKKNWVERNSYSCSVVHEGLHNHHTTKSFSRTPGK
The experiment in a line: SPR, mAb captured, 37 C. How it is done: (§1) The BiaCore sensor surface was derivatized with either a polyclonal rabbit anti-mouse antibody (GE, # BR-1008-38) or with a monoclonal mouse anti-human Fc antibody (GE, # BR-1008-39) to capture approximately 50-85 RUs of anti-LAG3 monoclonal antibodies, expressed with either a mouse Fc or a human Fc, respectively. […] The binding of the LAG3 reagents to captured monoclonal antibodies was monitored for 4 minutes while their dissociation from the antibodies was monitored for 8 minutes in HBST running buffer (0.01 M HEPES pH 7.4, 0.15 M NaCl, 3 mM EDTA, 0.05% v/v Surfactant P20). Experiments were performed at 25° C. and 37° C. Kinetic association (kₐ) and dissociation (kd) rate constants were determined by processing and fitting the data to a 1:1 binding model using Scrubber 2.0c curve fitting software. Binding dissociation equilibrium constants (KD) and dissociative half-lives (t_{1/2}) were then calculated from the kinetic rate constants as: KD (M)=kd/kₐ and t_{1/2} (min)=[ln2/(60*kd)].
For orientation: Surface plasmon resonance follows binding to a sensor surface in real time, without labels.

Assay [2] deals with T2, recombinant human LAG3 expressed with a C-terminal myc-myc-hexahistidine tag (human, UniProt P18627 29-450).
T2 construct: also called hLAG3-mmh; hLAG3.mmh
The assay is described as follows: SPR, mAb captured, 37 C. The method, then:
as §1

For assay [3], the target named is T3, human LAG3 expressed on HEK293 cells (human, UniProt P18627 23-525).
T3 construct: also called hLAG3; HEK293/hLAG3
T3 sequence: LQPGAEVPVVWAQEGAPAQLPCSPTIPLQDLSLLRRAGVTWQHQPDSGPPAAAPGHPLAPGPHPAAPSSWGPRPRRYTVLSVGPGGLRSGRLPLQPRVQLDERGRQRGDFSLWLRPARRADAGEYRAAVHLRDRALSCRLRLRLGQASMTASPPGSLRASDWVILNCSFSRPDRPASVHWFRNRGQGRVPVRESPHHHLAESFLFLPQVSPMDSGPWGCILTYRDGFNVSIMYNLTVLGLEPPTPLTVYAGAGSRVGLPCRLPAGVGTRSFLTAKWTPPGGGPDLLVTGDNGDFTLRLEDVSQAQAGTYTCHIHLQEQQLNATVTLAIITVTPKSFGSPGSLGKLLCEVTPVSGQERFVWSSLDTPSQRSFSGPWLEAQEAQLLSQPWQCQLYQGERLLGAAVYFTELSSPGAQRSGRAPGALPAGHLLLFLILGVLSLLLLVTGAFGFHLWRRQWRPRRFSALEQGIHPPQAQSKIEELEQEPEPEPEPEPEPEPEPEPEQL
The experiment in a line: flow cytometry, HEK293/hLAG3 cells. How it is done:
The serially diluted antibodies were added to the cell suspension and incubated for 15-30 minutes on ice. The cells were centrifuged and pellets were washed with staining buffer to remove unbound antibodies. […] The cells were centrifuged and pellets were washed with staining buffer to remove unbound secondary F(ab′)2 and fixed overnight with a 1:1 dilution of Cytofix (BD Biosciences, #554655) and staining buffer. Following day, fixed cells were centrifuged and pellets were washed with staining buffer, resuspended and filtered. Fluorescence measurements were acquired on HyperCyt® cytometer and analyzed in ForeCyt™ (IntelliCyt; Albuquerque, N. Mex.) to determine the mean fluorescence intensities (MFI). The EC₅₀ values were calculated from a four-parameter logistic equation over an 11-point response curve using GraphPad Prism. EC₅₀ was defined as the concentration of antibody at which 50% of maximal binding signal is detected. The MFI ratio for each antibody was calculated by dividing the MFI at 100 nM by MFI at 0 nM of antibody concentration.
In general terms: Flow cytometry measures light scatter and fluorescence of single cells or particles in a stream.

The target in assay [4] is T3, human LAG3 expressed on HEK293 cells. The experiment in a line: cell adherence assay, blocks A20 (mouse MHCII) cells on HEK293-hLAG3. How it is done: Cells were plated into sterile Nunclon™ Delta 96-Well MicroWell™ Black Optical Bottom Plates (Thermo Scientific). The wells from the perimeter of the plate were not included in the assay design to avoid edge effects.
On the day of treatment, all antibodies were serially (1:3) diluted in RPMI media (without FBS or supplements added). The 9-point dilution ranged between 45 pM to 300 nM, with the last dilution point containing no mAb. […] While the plated HEK293-LAG3 cells were incubating with the test or control antibodies, non-adherent B-cells (RAJI or A20) were labeled with Calcein AM using the following procedure. RAJI and A20 suspension cells were harvested and centrifuged at 1,200 rpm for 5 minutes. Cell pellets were resuspended in 1×PBS and counted. Cells were washed with RPMI, and resuspended in RPMI at a concentration of 10⁶ cells per 1 ml. Cells were labeled by adding 5 μL of Calcein AM per 1 ml of cell suspension and incubated for 30 min at 37° C., at 5% CO₂. […] Subsequently, 10 μL of BD Pharmingen Fc Block (0.5 mg/mL) was added per 1 ml of the Calcein AM labeled cells, which were incubated at RT for 10 minutes. The Calcein AM-stained, Fc-blocked RAJI or A20 cells were resuspended in RPMI to a final concentration of 3×10⁶ cells per 1 ml and subsequently used in the adherence assay.
The labeled suspension cells were incubated with the HEK293 monolayer for 1 hour at 37° C., at 5% CO₂.

B1: H4sH15498P2 (antibody, V domains shown)
VH: EVQLVESGGGLVQPGGSLRLSCAASGFTFTSYAMTWVRQAPGKGLEWVSDISGSGGRTYYADSVKGRFTISRDNSKNMLYLQMNILRAEDTAVYHCAKGTGQQVDLYNYYYALDVWGQGTTVTVSS
VL: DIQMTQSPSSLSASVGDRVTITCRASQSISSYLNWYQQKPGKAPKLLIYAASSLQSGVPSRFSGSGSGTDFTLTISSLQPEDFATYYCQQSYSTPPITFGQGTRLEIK
notes: H4sH = human IgG4 Fc with 2 or more amino acid changes as disclosed in US20140243504
In the case of B1, in assay [1], the Kd was 0.0194 nM, the koff came to 1e-05 s⁻¹, the kon turned out to be 515000 M⁻¹ s⁻¹ and the t1/2 is not below 19.2 h. Besides, in assay [2], the Kd was 0.185 nM, the koff was found to be 7.08e-05 s⁻¹, the kon stood at 378000 M⁻¹ s⁻¹ and the t1/2 was 2.72 h. Besides, in assay [3], the midpoint of the response, the EC50, lay at 7.92 nM and the “Ratio of MFI (100 nM/0 nM)” value is 401. In addition, half-maximal inhibition in assay [4] (IC50) was put at 21 nM.

B2: H4H15498P2 (antibody, human IgG4, V domains shown)
VH: B1 VH
VL: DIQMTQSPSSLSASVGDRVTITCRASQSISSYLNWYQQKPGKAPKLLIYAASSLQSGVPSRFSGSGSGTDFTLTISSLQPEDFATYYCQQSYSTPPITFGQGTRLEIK
notes: H4H = human IgG4 Fc with S108P hinge mutation
As to B2, in assay [1], the Kd was 0.0217 nM, the koff came out at 1e-05 s⁻¹, the kon worked out at 460000 M⁻¹ s⁻¹ and the t1/2 is not below 19.2 h. In addition, in assay [2], the Kd worked out at 0.0783 nM, the koff came out at 2.96e-05 s⁻¹, the kon came out at 381000 M⁻¹ s⁻¹ and the t1/2 turned out to be 6.5 h. In assay [3], the EC50 was found to be 5.76 nM and the “Ratio of MFI (100 nM/0 nM)” value was 305. In assay [4], this molecule had a 50% inhibitory concentration (IC50) of 30 nM.

B3: H4sH15482P (antibody, human IgG4 S228P, kappa)
heavy: QVQLVESGGGVVQPGRSLRLSCVASGFTFSSYGMHWVRQAPGKGLEWVAIIWYDGSNKYYADSVKGRFTISRDNSKNTQYLQMNSLRAEDTAVYYCASVATSGDFDYYGMDVWGQGTTVTVSSASTKGPSVFPLAPCSRSTSESTAALGCLVKDYFPEPVTVSWNSGALTSGVHTFPAVLQSSGLYSLSSVVTVPSSSLGTKTYTCNVDHKPSNTKVDKRVESKYGPPCPPCPAPPVAGPSVFLFPPKPKDTLMISRTPEVTCVVVDVSQEDPEVQFNWYVDGVEVHNAKTKPREEQFNSTYRVVSVLTVLHQDWLNGKEYKCKVSNKGLPSSIEKTISKAKGQPREPQVYTLPPSQEEMTKNQVSLTCLVKGFYPSDIAVEWESNGQPENNYKTTPPVLDSDGSFFLYSRLTVDKSRWQEGNVFSCSVMHEALHNHYTQKSLSLSLGK
light: EIVLTQSPATLSLSPGERTTLSCRASQRISTYLAWYQQKPGQAPRLLIYDASKRATGIPARFSGSGSGTGFTLTISSLEPEDFAVYYCQQRSNWPLTFGGGTKVEIKRTVAAPSVFIFPPSDEQLKSGTASVVCLLNNFYPREAKVQWKVDNALQSGNSQESVTEQDSKDSTYSLSSTLTLSKADYEKHKVYACEVTHQGLSSPVTKSFNRGEC
notes: H4sH = modified human IgG4 Fc; also called mAb1
As to B3, in assay [1], the Kd came to 0.0316 nM and the t1/2 is 1.17 h. For the same molecule, in assay [2], the Kd is 1.82 nM and the t1/2 was 0.377 h. For the same molecule, the EC50 in assay [3] was found to be 1.11 nM. In assay [4], this molecule displayed an IC50 of 3.8 nM.

B4: H4H15482P (antibody, human IgG4 S228P, kappa)
heavy: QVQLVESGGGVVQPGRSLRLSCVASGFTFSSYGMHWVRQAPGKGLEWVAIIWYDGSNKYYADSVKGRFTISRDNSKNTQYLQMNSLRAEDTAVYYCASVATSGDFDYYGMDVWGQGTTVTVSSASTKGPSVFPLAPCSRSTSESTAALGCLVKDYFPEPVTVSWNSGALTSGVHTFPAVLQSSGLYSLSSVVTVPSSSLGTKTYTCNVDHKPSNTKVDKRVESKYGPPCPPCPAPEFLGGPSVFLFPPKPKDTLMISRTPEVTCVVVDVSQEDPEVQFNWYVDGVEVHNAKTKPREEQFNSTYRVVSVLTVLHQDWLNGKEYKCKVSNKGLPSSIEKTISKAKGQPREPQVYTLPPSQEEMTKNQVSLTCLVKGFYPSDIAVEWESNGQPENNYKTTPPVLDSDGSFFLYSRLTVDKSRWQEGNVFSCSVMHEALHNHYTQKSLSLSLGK
light: B3 light
notes: H4H = human IgG4 Fc with S108P
Consider B4, for which, in assay [1], the Kd worked out at 0.0891 nM and the t1/2 amounted to 2.13 h. Moreover, in assay [2], the Kd is 1.96 nM and the t1/2 stood at 0.337 h. Besides, a half-maximal effect in assay [3] (EC50) was put at 1.91 nM. The molecule further had an IC50 in assay [4] of 11 nM.

B5: H4H15479P (antibody, human IgG4, V domains shown)
VH: QVQLQQWGAGLLNPSETLSLTCAVYGGAFSDYYWNWIRQPPGKGLEWIGEINHRGSTNYNPSLKSRVTISVDTSKNQFSLRMSSVTAADAAVYYCARGEDYDIWNGYYQEKWGQGTLVTVSS
VL: EIVLTQSPATLSLSPGERATLSCRASQSISTYLAWYQQKPGQAPRLLIYDASKRATGIPARFSGSGSGTDFTLTISSLEPEDFVVYYCHQRSNWPLTFGGGTKVEIK
Consider B5, for which, in assay [1], the Kd was determined as 0.00399 nM, the off-rate constant (koff) was 1e-05 s⁻¹, the kon turned out to be 2.5e+06 M⁻¹ s⁻¹ and the t1/2 is not below 19.2 h. Besides, in assay [2], the dissociation constant (Kd) came out at 0.0321 nM, the koff amounted to 4.08e-05 s⁻¹, the kon stood at 1.27e+06 M⁻¹ s⁻¹ and the t1/2 turned out to be 4.72 h. For the same molecule, in assay [3], the EC50 was 0.752 nM and the “Ratio of MFI (100 nM/0 nM)” value was 203. This molecule returned an IC50 in assay [4] of 11 nM.

What is called Kd is the constant that tells how readily two partners part at equilibrium. In general, koff refers to a measure of how fast the partners let go of each other. A word on the kon: it is the rate constant with which the complex forms. As usually defined, the EC50 is the concentration that produces a half-maximal response. Read a high EC50 as a need for much substance. For orientation: IC50 means the concentration at which inhibition is half-maximal. High values mean a need for much substance, low ones inhibition by little substance.

(Values after patent publication US20170101472A1 (Regeneron, published 2017).)
